From patent publication US20030027303A1

Columns and labels:
Test in all cases: cell-based or functional assay
[1] = molecular target: gut proteases of A. infusa (crude gut extract) (Agrotis infusa)
[2] = molecular target: gut proteases of A. tasmaniae (crude gut extract) (Aphodius tasmaniae)
[3] = molecular target: gut proteases of C. obliquana (crude gut extract) (Ctenopseustis obliquana)
[4] = molecular target: gut proteases of C. rufifacies (crude gut extract) (Chrysomya rufifacies)
[5] = molecular target: gut proteases of C. zealandica (crude gut extract) (Costelytra zealandica)
[6] = molecular target: gut proteases of E. postvitiana (crude gut extract) (Epiphyas postvittana)
[7] = molecular target: gut proteases of H. armigera (crude gut extract) (Helicoverpa armigera)
[8] = molecular target: gut proteases of H. punctigera (crude gut extract) (Helicoverpa punctigera)
[9] = molecular target: gut proteases of L. serricata (crude gut extract) (Lucilla sericata)
[10] = molecular target: gut proteases of P. octo (crude gut extract) (Planotortrix octo)
[11] = molecular target: gut proteases of P. opercullela (crude gut extract) (Phthorimaea opercullela)
[12] = molecular target: gut proteases of S. litura (crude gut extract) (Spodoptera litura)
[13] = molecular target: gut proteases of T. commodus (crude gut extract) (Teleogryllus commodus)
[14] = molecular target: gut proteases of W. cervinata (crude gut extract) (Wiseana cervinata)
[15] = molecular target: gut proteases of sugar cane grub (crude gut extract)

- casein hydrolysis (% control) [1]: 40.2 % control
- casein hydrolysis (% control) [2]: 34.2 % control
- casein hydrolysis (% control) [3]: 49.1 % control
- casein hydrolysis (% control) [4]: 37.8 % control
- casein hydrolysis (% control) [5]: 54.7 % control
- casein hydrolysis (% control) [6]: 45.4 % control
- casein hydrolysis (% control) [7]: 32.7 % control
- casein hydrolysis (% control) [8]: 29.3 % control
- casein hydrolysis (% control) [9]: 100 % control
- casein hydrolysis (% control) [10]: 67.2 % control
- casein hydrolysis (% control) [11]: 100 % control
- casein hydrolysis (% control) [12]: 33.6 % control
- casein hydrolysis (% control) [13]: 35 % control
- casein hydrolysis (% control) [14]: 82.9 % control
- casein hydrolysis (% control) [15]: 43.9 % control
B1: C1, N. alata chymotrypsin inhibitor (peak 1 from HPLC) (peptide)
peptide: DRICTNCCAGTKGCKYFSDDGTFVCEGESDPRNPKACTLNCDPRIAYGVCPRS
